# Laboratory results reported in publication PMC4491694, “New Variants of Tomato Thymidine Kinase 1 Selected for Increased Sensitivity of E. coli KY895 towards Azidothymidine” (Cancers, 2015).
# T1: ToTK1 (Solanum lycopersicum, UniProt Q71F77, N123S/T78A)
# T1 construct: full length, 234 residues; GST fusion from pGEX-2T, thrombin-cleaved, recombinant
# T1 sequence (Q71F77 1-234 T78A/N123S): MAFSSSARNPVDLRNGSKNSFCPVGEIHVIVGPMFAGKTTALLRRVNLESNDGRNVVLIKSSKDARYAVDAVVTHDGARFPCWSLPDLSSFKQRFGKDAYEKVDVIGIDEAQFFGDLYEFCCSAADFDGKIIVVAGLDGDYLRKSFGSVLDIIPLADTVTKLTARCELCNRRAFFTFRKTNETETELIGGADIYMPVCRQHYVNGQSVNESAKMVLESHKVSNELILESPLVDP
# T2: ToTK1 (Solanum lycopersicum, UniProt Q71F77)
# T2 construct: full length, 234 residues; GST fusion from pGEX-2T, thrombin-cleaved, recombinant
# T2 sequence (Q71F77 1-234): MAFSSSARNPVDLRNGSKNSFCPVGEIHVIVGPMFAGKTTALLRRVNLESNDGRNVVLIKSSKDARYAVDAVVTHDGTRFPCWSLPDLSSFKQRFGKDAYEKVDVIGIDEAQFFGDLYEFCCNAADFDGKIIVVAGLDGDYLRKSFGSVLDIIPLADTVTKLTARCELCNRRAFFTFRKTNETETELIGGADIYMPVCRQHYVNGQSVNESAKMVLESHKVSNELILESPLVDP
# T3: ToTK1ΔC25 (Solanum lycopersicum, UniProt Q71F77)
# T3 construct: last 25 C-terminal residues of the 234-residue protein deleted (residues 210-234, borders derived); GST fusion from pGEX-2T, thrombin-cleaved, recombinant
# T3 sequence (Q71F77 1-209): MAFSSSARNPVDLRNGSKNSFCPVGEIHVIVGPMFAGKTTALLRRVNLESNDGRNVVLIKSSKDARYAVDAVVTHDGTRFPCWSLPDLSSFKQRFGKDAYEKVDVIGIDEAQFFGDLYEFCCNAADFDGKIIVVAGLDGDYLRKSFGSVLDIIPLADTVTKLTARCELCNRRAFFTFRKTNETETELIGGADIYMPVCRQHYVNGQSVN
# T4: ToTK1 (Solanum lycopersicum, UniProt Q71F77, T78A/N123S)
# T4 construct: full length, 234 residues; GST fusion from pGEX-2T, thrombin-cleaved, recombinant
# T4 sequence (Q71F77 1-234 T78A/N123S): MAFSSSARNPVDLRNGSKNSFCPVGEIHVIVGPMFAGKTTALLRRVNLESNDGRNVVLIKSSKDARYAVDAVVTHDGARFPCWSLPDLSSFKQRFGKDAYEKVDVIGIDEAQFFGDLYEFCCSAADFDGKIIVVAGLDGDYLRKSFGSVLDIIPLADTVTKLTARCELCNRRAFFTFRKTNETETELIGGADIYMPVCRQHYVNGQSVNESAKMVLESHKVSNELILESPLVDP
# How the values were obtained:
# ToTK1 [1] = biological target: T1, ToTK1; assay: nucleoside kinase assay, 3H-labelled nucleoside substrate; Ki equals IC50; format: biochemical; conditions: read-out: dThd
# Text: nucleoside kinase assay, 3H-labelled nucleoside substrate; Ki equals IC50 on ToTK1
# ToTK1 [2] = biological target: T2, ToTK1; assay: nucleoside kinase assay, 3H-labelled nucleoside substrate; format: biochemical; conditions: read-out: IC50 dTTP (μM) / dThd
# Text: (§1) nucleoside kinase assay, 3H-labelled nucleoside substrate on ToTK1
# ToTK1 [3] = biological target: T1, ToTK1; assay: as above; format: biochemical; conditions: read-out: IC50 dTTP (μM) / dThd
# Text: as §1
# ToTK1ΔC25 [4] = biological target: T3, ToTK1ΔC25; assay: as above; format: biochemical; conditions: read-out: IC50 dTTP (μM) / dThd
# Text: nucleoside kinase assay, 3H-labelled nucleoside substrate on ToTK1ΔC25
# ToTK1ΔC25 [5] = biological target: T3, ToTK1ΔC25; assay: nucleoside kinase assay, 3H-labelled nucleoside, Michaelis-Menten fit; format: biochemical; conditions: labelled compound (3H)
# Text: (§2) nucleoside kinase assay, 3H-labelled nucleoside, Michaelis-Menten fit on ToTK1ΔC25
# ToTK1 [6] = biological target: T2, ToTK1; assay: as above; format: biochemical; conditions: labelled compound (3H)
# Text: (§3) nucleoside kinase assay, 3H-labelled nucleoside, Michaelis-Menten fit on ToTK1
# ToTK1 [7] = biological target: T4, ToTK1; assay: as above; format: biochemical; conditions: labelled compound (3H)
# Text: as §3
# [8] = substrate: O=c1ccn([C@H]2C[C@H](O)[C@@H](CO)O2)c(=O)[nH]1; assay: as above; format: biochemical, Solanum lycopersicum; conditions: labelled compound (3H)
# Text: as §2
# [9] = substrate: Cc1cn([C@H]2C[C@H](O)[C@@H](CO)O2)c(=O)[nH]c1=O; assay: as above; format: biochemical, Solanum lycopersicum; conditions: labelled compound (3H)
# Text: as §3
# [10] = substrate: O=c1ccn([C@H]2C[C@H](O)[C@@H](CO)O2)c(=O)[nH]1; assay: as above; format: biochemical, Solanum lycopersicum; conditions: labelled compound (3H); remark: listed apart in the source
# Text: as §3
molecule,measurement,setting,value
Cc1cn([C@H]2C[C@H](O)[C@@H](COP(=O)(O)OP(=O)(O)OP(=O)(O)O)O2)c(=O)[nH]c1=O [dTTP],Ki,ToTK1 [1],55.6 µM
same,IC50,ToTK1 [2],49.1 ± 1.7 µM
same,IC50,ToTK1 [3],55.6 ± 5.2 µM
same,IC50,ToTK1ΔC25 [4],65.2 ± 6 µM
"Cc1cn([C@H]2C[C@H](N=[N+]=[N-])[C@@H](CO)O2)c(=O)[nH]c1=O [AZT, 3-azido-2,3-dideoxythymidine]",Km,ToTK1ΔC25 [5],2 ± 0.06 µM
same,Km,ToTK1 [6],1.2 ± 0.04 µM
same,Km,ToTK1 [7],1.1 ± 0.1 µM
"ToTK1ΔC25 (Solanum lycopersicum) (protein, last 25 C-terminal residues of the 234-residue protein deleted (residues 210-234, borders derived); GST fusion from pGEX-2T, thrombin-cleaved, recombinant) MAFSSSARNPVDLRNGSKNSFCPVGEIHVIVGPMFAGKTTALLRRVNLESNDGRNVVLIKSSKDARYAVDAVVTHDGTRFPCWSLPDLSSFKQRFGKDAYEKVDVIGIDEAQFFGDLYEFCCNAADFDGKIIVVAGLDGDYLRKSFGSVLDIIPLADTVTKLTARCELCNRRAFFTFRKTNETETELIGGADIYMPVCRQHYVNGQSVN",Km,[8],27 ± 3.3 µM
same,Vmax,[8],4 µmol/min/mg
same,kcat,[8],1.54 s⁻¹
same,kcat/Km,[8],57000 M⁻¹ s⁻¹
"ToTK1 (Solanum lycopersicum; N123S/T78A) (protein, full length, 234 residues; GST fusion from pGEX-2T, thrombin-cleaved, recombinant) MAFSSSARNPVDLRNGSKNSFCPVGEIHVIVGPMFAGKTTALLRRVNLESNDGRNVVLIKSSKDARYAVDAVVTHDGARFPCWSLPDLSSFKQRFGKDAYEKVDVIGIDEAQFFGDLYEFCCSAADFDGKIIVVAGLDGDYLRKSFGSVLDIIPLADTVTKLTARCELCNRRAFFTFRKTNETETELIGGADIYMPVCRQHYVNGQSVNESAKMVLESHKVSNELILESPLVDP",Km,[9],1.3 ± 0.36 µM
same,Vmax,[9],1.6 µmol/min/mg
same,kcat,[9],0.69 s⁻¹
same,kcat/Km,[9],531000 M⁻¹ s⁻¹
same,Km,[10],15 ± 3.3 µM
same,Vmax,[10],1.9 µmol/min/mg
same,kcat,[10],0.82 s⁻¹
same,kcat/Km,[10],54700 M⁻¹ s⁻¹
"ToTK1 (Solanum lycopersicum) (protein, full length, 234 residues; GST fusion from pGEX-2T, thrombin-cleaved, recombinant) MAFSSSARNPVDLRNGSKNSFCPVGEIHVIVGPMFAGKTTALLRRVNLESNDGRNVVLIKSSKDARYAVDAVVTHDGTRFPCWSLPDLSSFKQRFGKDAYEKVDVIGIDEAQFFGDLYEFCCNAADFDGKIIVVAGLDGDYLRKSFGSVLDIIPLADTVTKLTARCELCNRRAFFTFRKTNETETELIGGADIYMPVCRQHYVNGQSVNESAKMVLESHKVSNELILESPLVDP",Km,[10],17 ± 0.5 µM
same,Vmax,[10],3.4 µmol/min/mg
same,kcat,[10],1.47 s⁻¹
same,kcat/Km,[10],86500 M⁻¹ s⁻¹
